Test results published in publication PMC13129248.

Target: DENV C (dengue virus capsid protein) (Dengue virus 2, strain New Guinea, UniProt O92835 1-100)
Test: Trp fluorescence quenching and lifetime

## AAAGACCAACACCAAGAGGCACAGTAATGGACATT (ssDNA) [C]
  binding result: binds
